From patent US20230151068A1

Biological target: biotinylated His-Avi-TEAD (194-411) (UniProt P28347)
Test: SSM screen, enrichment after two rounds of sorting

Row | enrichment score | Binder
1 | -8.35 | GSPDEYIERAKECCKKGDIYCCLRYFEESGDPNVMLICLFCP (designed binder) [Q18Y variant of SEQ ID NO: 1]
2 | -4.91 | GSPDEYIERAKECCKKGDILCCLRYFEESGDPNVMLICLFCP (designed binder) [Q18L variant of SEQ ID NO: 1]
3 | -0.77 | GSPDEYIERAKECCKKGDIVCCLRYFEESGDPNVMLICLFCP (designed binder) [Q18V variant of SEQ ID NO: 1]
4 | -1.65 | GSPDEYIERAKECCVKGDIQCCLRYFEESGDPNVMLICLFCP (designed binder) [K13V variant of SEQ ID NO: 1]
5 | -9.48 | GSPDEYIERAKECCKKGDYQCCLRYFEESGDPNVMLICLFCP (designed binder) [I17Y variant of SEQ ID NO: 1]
6 | 0.99 | GSPDEYIERAKECCKKVDIQCCLRYFEESGDPNVMLICLFCP (designed binder) [G15V variant of SEQ ID NO: 1]
7 | -0.44 | GSPDEYIERAKGCCKKGDIQCCLRYFEESGDPNVMLICLFCP (designed binder) [E10G variant of SEQ ID NO: 1]
8 | -1.98 | GSPDEYIERAKECCKKFDIQCCLRYFEESGDPNVMLICLFCP (designed binder) [G15F variant of SEQ ID NO: 1]
9 | -1.25 | GSPDEYIERAKECCKKPDIQCCLRYFEESGDPNVMLICLFCP (designed binder) [G15P variant of SEQ ID NO: 1]
10 | -2.41 | GSPDEYIERAKECCKKGDPQCCLRYFEESGDPNVMLICLFCP (designed binder) [I17P variant of SEQ ID NO: 1]
11 | -1.14 | GSPDEYIERAKECCFKGDIQCCLRYFEESGDPNVMLICLFCP (designed binder) [K13F variant of SEQ ID NO: 1]
12 | 4.17 | GSPDEYIERAKECCKKGDVQCCLRYFEESGDPNVMLICLFCP (designed binder) [I17V variant of SEQ ID NO: 1]
13 | 1.31 | GSPDEYIEGAKECCKKGDIQCCLRYFEESGDPNVMLICLFCP (designed binder) [R07G variant of SEQ ID NO: 1]
14 | -0.89 | GSPDEYIERAKECCKLGDIQCCLRYFEESGDPNVMLICLFCP (designed binder) [K14L variant of SEQ ID NO: 1]
15 | 1.7 | GSGDEYIERAKECCKKGDIQCCLRYFEESGDPNVMLICLFCP (designed binder) [P01G variant of SEQ ID NO: 1]
16 | -2.21 | GSPDEGIERAKECCKKGDIQCCLRYFEESGDPNVMLICLFCP (designed binder) [Y04G variant of SEQ ID NO: 1]
17 | -0.58 | GSPDEYIERADECCKKGDIQCCLRYFEESGDPNVMLICLFCP (designed binder) [K09D variant of SEQ ID NO: 1]
18 | 0.69 | GSPDEYIERAKECCKKGDIPCCLRYFEESGDPNVMLICLFCP (designed binder) [Q18P variant of SEQ ID NO: 1]
19 | -8.99 | GSPDEYIERAKECCKKGLIQCCLRYFEESGDPNVMLICLFCP (designed binder) [D16L variant of SEQ ID NO: 1]
20 | -2.3 | GSPDEYIERAKECCKKGWIQCCLRYFEESGDPNVMLICLFCP (designed binder) [D16W variant of SEQ ID NO: 1]
21 | -1.15 | GSPDEYIGRAKECCKKGDIQCCLRYFEESGDPNVMLICLFCP (designed binder) [E06G variant of SEQ ID NO: 1]
22 | -4.17 | GSPDEYIERDKECCKKGDIQCCLRYFEESGDPNVMLICLFCP (designed binder) [A08D variant of SEQ ID NO: 1]
23 | -0.5 | GSPDEYIERAKECCKFGDIQCCLRYFEESGDPNVMLICLFCP (designed binder) [K14F variant of SEQ ID NO: 1]
24 | -1.29 | GSPDEYIERAKECCYKGDIQCCLRYFEESGDPNVMLICLFCP (designed binder) [K13Y variant of SEQ ID NO: 1]
25 | -0.68 | GSPDEYIERAKECCKYGDIQCCLRYFEESGDPNVMLICLFCP (designed binder) [K14Y variant of SEQ ID NO: 1]
26 | -0.48 | GSPDEYIERAGECCKKGDIQCCLRYFEESGDPNVMLICLFCP (designed binder) [K09G variant of SEQ ID NO: 1]
27 | -0.62 | GSPDGYIERAKECCKKGDIQCCLRYFEESGDPNVMLICLFCP (designed binder) [E03G variant of SEQ ID NO: 1]
28 | -0.59 | GSPDEYIERAKECCKKLDIQCCLRYFEESGDPNVMLICLFCP (designed binder) [G15L variant of SEQ ID NO: 1]
29 | -4.62 | GSPDEYIERAKECCKKGPIQCCLRYFEESGDPNVMLICLFCP (designed binder) [D16P variant of SEQ ID NO: 1]

Second part, the binder before the results:

Row | Binder | enrichment score
30 | GSPDEYIERAKECCLKGDIQCCLRYFEESGDPNVMLICLFCP (designed binder) [K13L variant of SEQ ID NO: 1] | -1.37
31 | GSPDEYIERAKECCKKYDIQCCLRYFEESGDPNVMLICLFCP (designed binder) [G15Y variant of SEQ ID NO: 1] | -1.14
32 | GSPGEYIERAKECCKKGDIQCCLRYFEESGDPNVMLICLFCP (designed binder) [D02G variant of SEQ ID NO: 1] | -0.32
33 | GSPDEYIERAKECCKPGDIQCCLRYFEESGDPNVMLICLFCP (designed binder) [K14P variant of SEQ ID NO: 1] | -10.6
34 | GSPDEYIERAKECCKKGDWQCCLRYFEESGDPNVMLICLFCP (designed binder) [I17W variant of SEQ ID NO: 1] | -10.4
35 | GSPDDYIERAKECCKKGDIQCCLRYFEESGDPNVMLICLFCP (designed binder) [E03D variant of SEQ ID NO: 1] | 0.8
36 | GSPDEYIERAKECCKKGFIQCCLRYFEESGDPNVMLICLFCP (designed binder) [D16F variant of SEQ ID NO: 1] | -1.86
37 | GSPDEYIERAKECCKKGDFQCCLRYFEESGDPNVMLICLFCP (designed binder) [I17F variant of SEQ ID NO: 1] | -3.5
38 | GSPDEYIERAKECCKKGDIWCCLRYFEESGDPNVMLICLFCP (designed binder) [Q18W variant of SEQ ID NO: 1] | -11.1
39 | GSPDEDIERAKECCKKGDIQCCLRYFEESGDPNVMLICLFCP (designed binder) [Y04D variant of SEQ ID NO: 1] | -1.79
40 | GSPDEYIERAKECCKVGDIQCCLRYFEESGDPNVMLICLFCP (designed binder) [K14V variant of SEQ ID NO: 1] | 0.08
41 | GSPDEYIERAKECCKKWDIQCCLRYFEESGDPNVMLICLFCP (designed binder) [G15W variant of SEQ ID NO: 1] | -4.75
42 | GSPDEYIERGKECCKKGDIQCCLRYFEESGDPNVMLICLFCP (designed binder) [A08G variant of SEQ ID NO: 1] | -4.11
43 | GSPDEYIERAKECCKWGDIQCCLRYFEESGDPNVMLICLFCP (designed binder) [K14W variant of SEQ ID NO: 1] | -2.64
44 | GSPDEYIERAKECCKKGVIQCCLRYFEESGDPNVMLICLFCP (designed binder) [D16V variant of SEQ ID NO: 1] | -7.81
45 | GSPDEYIERAKECCKKGDIFCCLRYFEESGDPNVMLICLFCP (designed binder) [Q18F variant of SEQ ID NO: 1] | -4.21
46 | GSPDEYGERAKECCKKGDIQCCLRYFEESGDPNVMLICLFCP (designed binder) [I05G variant of SEQ ID NO: 1] | -3.97
47 | GSPDEYDERAKECCKKGDIQCCLRYFEESGDPNVMLICLFCP (designed binder) [I05D variant of SEQ ID NO: 1] | -3.47
48 | GSPDEYIERAKDCCKKGDIQCCLRYFEESGDPNVMLICLFCP (designed binder) [E10D variant of SEQ ID NO: 1] | -0.89
49 | GSPDEYIDRAKECCKKGDIQCCLRYFEESGDPNVMLICLFCP (designed binder) [E06D variant of SEQ ID NO: 1] | -0.6
50 | GSPDEYIERAKECCWKGDIQCCLRYFEESGDPNVMLICLFCP (designed binder) [K13W variant of SEQ ID NO: 1] | -2.99
51 | GSDDEYIERAKECCKKGDIQCCLRYFEESGDPNVMLICLFCP (designed binder) [P01D variant of SEQ ID NO: 1] | -0.65
52 | GSPDEYIERAKECCKKGDLQCCLRYFEESGDPNVMLICLFCP (designed binder) [I17L variant of SEQ ID NO: 1] | 1.28
53 | GSPDEYIERAKECCPKGDIQCCLRYFEESGDPNVMLICLFCP (designed binder) [K13P variant of SEQ ID NO: 1] | -10.4
54 | GSPDEYIERAKECCKKGYIQCCLRYFEESGDPNVMLICLFCP (designed binder) [D16Y variant of SEQ ID NO: 1] | -3.84
55 | GSEDEYIERAKECCKKGDIQCCLRYFEESGDPNVMLICLFCP (designed binder) [P01E variant of SEQ ID NO: 1] | 1.12
56 | GSPDEYIEDAKECCKKGDIQCCLRYFEESGDPNVMLICLFCP (designed binder) [R07D variant of SEQ ID NO: 1] | -2.25
